Laboratory results from the DeepSol protein solubility set.

Experiment: soluble on expression in E. coli; label from the status in PepcDB or PDB records

Sequence | soluble on expression in E. coli
MGSDKIHHHHHHMLISSRIVRSSLVNVPLRLSRCFTQAHRACKEEEVNSPLSSAAEQPEQKYTHFGSKTVLKSTKQKLVGDVFSSVANRYDLMNDVMSLGIHRLWKDHFINKLDAGKRPNSTTPLNFIDVAGGSGDIAFGLLDHAESKFGDTESTMDIVDINPDMLKEGEKRAMEQGKYFKDPRVRFLVSNGEKLEEIDSDSKDIYTVSFGIRNFTDIQKGLNTAYRVLKPGGIFYCLEFSKIENPLMDFAYQQWAKVLPVMGSMIANDYDSYQYLVESIERFPDQETFKSMIEKAGFKSAGYESLTFGICAIHWGIKV | not soluble
MSSNALYTDLSGYYDLMCSDINYQQQSASIHRLHQFLGNNGKQHLDLACGTGPHVRHFIDLGYQCSGLDINQPMLDMAMRRCPEAQFNLQDMTAFYLEQPVDLITCFLYSIHYSAGIERLKSCIASVHRALNDGGIFCFNSVDKHCIDNRLSIKHFAEFEGYHFAFESGWHYNGQGEKQSLNLSIAKRQQPFTQLTDFEADTSLHQTELWQDQHTMVATSFAELQALLAPYFEVHIFEHDYEKIVPWDLSSGNALFVCVKILEHHHHHH | not soluble
MADKSAYMSAGGYGSGYMGANASSSGYAREDYAQGGAGGSGNQNQGGSGGNTNPGGQVFKARTDQSCYLGP | not soluble
MSEEWEPKIVGFCCNWCTYGGADTAGVGRMQYPPSIRIIRVMCSGRIEPSFILKAFKEGADGVFIGGCHLGDCHYDAGNYKWQRRVMMLYDMLDELGIGRERVLHEWISASEGEKFQTKMNEIYDRIKALGPCTLNENLK | not soluble
MDTTTTSSLKSAEKKDTDATPRAHSPEIDVEVIKSDCSTPEKQNGAVGNEQQMNNSTSTRRTDSNKNLSPPPQRLRTSSSTSDGTENLISSLSSWDWVTIDGLKLPAVTRNKERYVAVHMVQLKLLSKFPSDIPRDITRKFTMGSHKMTVTEAWTFNTINAVIRKFDLGCQLFTANDELVKLNDVQMFYWNVKLFNLKRVNGQYETAISSAENNVQLLATAMQLKKQVDSDIQVIFK | not soluble
ADDILNVHRRNAKDPFAVGAVDAPLVITEFSDFECPFCARWSNQTEPTLMEEYVSKGLVRIEWNDLPVNGEHALAAAKAGRAAAAQGKFDEFRKALFEASRNVSGHPNNTLKDFERFARNAGVKDMERFSREAQDSTYDEVLTKAADYAHGLGVSGTPAFVVGTQYISGAQPTEEFIKVIESELKKSPTFSTPSSHQN | not soluble
MIDCLVMAGGQGARMGFREKPLLSVCGQPMLLRVLSALRMACRRIAIVYSRHTPGVKRLCLSGALGAVECIEGPGSYVKDLRLGFSHISTPLLVAPADMPFLNPHHLNLFIDRALADGASIVNLSLRGRGLTGLSVFKHHRGWWRDVETNGCWALDVDTWEDFRRAGELCGGECTGEGLRLELLEHHHHHH | not soluble
SLTQIQPGVEKFIKDFNDAKKKGEHAYDMTLSYQNFDKGFFNSRFQMQMTFDNGAPDLNIKPGQKVVFDVDVEHGPLPITMLMHGNVIPALAAAKVNLVNNELTQPLFIAAKNKSPVEATLRFAFGGSFSTTLDVAPAEYGKFSFGEGQFTFNGDGSSLSNLDIEGKVEDIVLQLSPMNKVTAKSFTIDSLARLEEKKFPVGESESKFNQINIINHGEDVAQIDAFVAKTRLDRVKDKDYINVNLTYELDKLTKGNQQLGSGEWSLIAESIDPSAVRQFIIQYNIAMQKQLAAHPELANDEVALQEVNAALFKEYLPLLQKSEPTIKQPVRWKNALGELNANLDISIADPAKSSSSTNKDIKSLNFDVKLPLNVVTETAKQLNLSEGMDAEKAQKQADKQISGMMTLGQMFQLITIDNNTASLQLRYTPGKVVFNGQEMSEEEFMSRAGRFVH | soluble
KPPIPPQVEEEYYTIAEFQTTIPDGISFQAGLKVEVIEKNLSGWWYIQIEDKEGWAPATFIDKYKKTSNASRPNFLAPLPHEVTQLRLGEAAALENNTGSEATGPSRPLPDAPHGVMDSGLPWSKDWKGSKDVLRKASSDMSASAGYEEISDPDMEEKPSLPPRKESIIKSEGELLERERERQRTEQLRGPTPKPPGVILPMMPAKHIPPARDSRRPEPKPDKSRLFQLKNDMGLECGHKVLAKEVKKPNLRPISKSKTDLPEEKPDATPQNPFLKSRPQVRPKPAPSPKTEPPQGEDQVDICNLRSKLRPAKSQDKSLLDGEGPQAVGGQDVAFSRSFLPGEGPGRAQDRTGKQDGLSPKEISCRAPPRPAKTTDPVSKSVPVPLQEAPQQRPVVPPRRPPPPKKTSSSSRPLPEVRGPQCEGHESRAAPTPGRALLVPPKAKPFLSNSLGGQDDTRGKGSLGPWGTGKIGENREKAAAASVPNADGLKDSLYVAVADFEGDKDTSSFQEGTVFEVREKNSSGWWFCQVLSGAPSWEGWIPSNYLRKKP | soluble
MGHHHHHHSHMEETRAGRYIVRAGSGGQTEDTASGAESVLATLAAVRTRRRSVVCDGPPGSPTDSARHMSDLASLALTAEFGLGCLEAYVRINAGQVLPVVWPPGWNLVLQEIETDEDFKPEDVKAWSHYLCCQTRLAFVGRFVNEGVLSPDQQKKTAVCLISDEGYVFCYVREDTAVYYLARNLMEFARVGLRAVETLHCMRYLTSSLVKRYFRPLLRAWSLGLDTMARFIIRHHGQFMPLTYPPGTELRLCNLRCFENSVEGGHLLRNIKTAFGMRVLGLGTVSLKGENAPFPHLRWPVDLIPIVVAYTGAVYACDVRDDRYIRVGDNLNTFMCLGLNLLFENRRFSGHNGIYDRVPDCPKGRQHR | not soluble
MRFVDFFNALLEGKVIGQKCGDCGSYTCPPKATCDNCGSRNLEAVELSGKGVIRTFTTTYVAPSGYTNEAPYTVAMVELDEGPWIVGRIDLPNEEIEKFGQDLIGARVSVYGKEFPTEPFYPDKKRRVVPMFRLEGLEHHHHHH | soluble
GPISEFPVDFHYGVRVDVTLLSKIRRVNEHIKSATKTGVVQVHGSACTPTLSVLSSVGTAGVLGMRIKNALTPLVGHTEGSGDVSFSFRNTSVGSGFTHTRELFGANVLDAGIAFYRKGEACDTGAQPQFVRTTISYGDNLTSTVHKSVVDQKGILPFHDRMEAGGRTTRLMLCGKTGAFLLKWLRQQKTKEDQTVTVSVSETLSIVTFSLGGVSKIIDFKPETKPVSGWDGLKGKKSVDVGVVHTDALSRVSLESLIAALRMCKVPGWFTPGLIWHSNEILEVEGVPTGCQSGDVKLSVLLLEVNRSV | soluble
MSLAAKVVPTLQQLAWQQMELTAFLHFGINTFTDSEWGDGKEDPALFNPVELDARQWVRILHEAGFRMVILTAKHHDGFCLWPTATTRHSVASSPWREGKGDVVKEVRAACEEYGMKFGIYLSPWDRNAECYGDSHRYNRFFVSQLTELLTHYGEVHEVWFDGANGEGPNGKRQEYDWETFYDTIRRLQPQAVMAIMGDDVRWVGNERGLGRTTEWSATVLTPGIYSRSKTERNRLGIRENSPDLGSREVLKEAGEIFWYPSEVDVSIRPGWFYHAAEDKKVKSLDKLVDIYFQSVGYNSVLLLNVPPDRRGLIHEADALRLKEWADYLGRAFAHDRVVDSARYAVVQGHAVEEYALESKTHINILMLQEDITKGQRTEAFTVEAWVDGAWQEIGRGTTIGYKRLLRIPAVETDRIRVRIEQCRLPVNLCRVAVYYAEGHHHHHH | soluble
MVIQLQKGQKIDLGKTSPGLTKAVIGLGWDIKSYDGGSDFDLDASAFLLDANGKCTKETDFIFYNNLQSPCGSVLHTGDNRTGEGEGEGDDEQLVVDLKKVPADVHRIAITVTIYDAEGRSQNFGQVGNAFVRLANEETNEEVLRFDLGEDFSIETAVVFCELYRHNGQWKFNAVGSGFQGGLGALVRAYGLDA | not soluble
MNKRIVICADGTWNRPEKDLKVDFPTNVLRLARAISPIAADGKPQQVFYDWGVGSYYDEVIGGATGRGLHKNIMDGYRYIVQNYSPGDEIYLFGFSRGAYTVRCLCGLINNCGILKRPEARLIQQAFDHYKKSSAPFAPSGDKSVEFRHEHCHESREIKFVGVWDTVGAMGIPISFLGLFEDKDEFYDTKIGRNVRVARHALAIDEHRSDFEPTIWQLRDNMDMQQVWFAGAHSNVGGSYLPDKDGSLLSDNALAWMIAEAERFNLSLEPHLTAGLEHHHHHH | not soluble
MTEFTPFFDGSNQLNYLKFVILRFHGVSKRKICKMYNFAYFRILEVCEMAKKNDYRFTYKDYKFLKQYGVSNTFICKMYHISIEDLEFFEVMNR | not soluble
MWNAGRETSSPGTELSENQAKKEKERLIKELQLITEERNDLRDRLRFLTERSMKNRSHFRPNPYYEDLERMEEAVMSILHNLEMENTEVHENNHKLKKEITFSR | soluble
MSLARMSRRSRGAAGAQSVVKPETPMAQVLHQFNYCPCQYLEQNWIVPKQPWLLNLDGWRDNPNFNLWCLEEWALAPVPETAFNKPHHSLALLPPDALSTLMLTIGGALHSFAMRQVVLKKPKQCLNNVFGLDIARFLIQQGPMLLSQWPKGWQKALPDVMKEDEVERHMLKQGYAWMKFILASSSHDILLRWQFKLDQSLSQVKENTSWLVEEQRDLAYRLTKKIAKQVIPQWFHLLKEGHHHHHH | not soluble
SNAVRGFLIVGNKAFTQPFSLNDLPGAGRMDVLCRCTSQALFISHGIRRDVEVYLLLLGPPSPPKSILIKGDEVRRMSPDERNVAGHIKKALAVECGKSWKKVHSGVYVSRKGLEELIEELSEKYSIIYLKEDGVDISNAQLPPNPLFVIGDHEGLTEEQEKVVERYAALKLSLSPLSLLAEQCVVIAHHHLDRLQF | soluble
MMKLRIEIDGNLEETEIVIKTPTLTDEIADLQRLLQESKAPRLTFYKGTGEYYLDLSEILFFETEGSKIYAHNQKEAYEVRLKLYELESILPRYFNRVSKSTIANIRQIYSVDKSFSGTGTISFYQTHKEVHVSRHYQSLLKENLRNMR | not soluble
MALVNEHFLKLPGSYLFSDIAKKVNTFKITHPKQDIIRLGIGDVTQPLPKACIEAMHKAVEELASKDTFRGYGPEQGYDFLIEAIIKNDFAPRGIHFSPSEIFVNDGAKSDTGNIGDILRHDNSVGVTDPIYPVYIDSNVMCGRAGVLEEGTGKWSNVTYMPCTSENDFIPEIPDKRIDIVYLCYPNNPTGTTLTKPELKKWVDYALANDTLILFDAAYEAYIQDADVPHSIYEIKGAKKCAIEFRSFSKTAGFTGVRCGYTVVPKELTAATLEGDRIPLNKLWNRRQCTKFNGTSYITQRAAEAVYSTEGKAQIKETINYYMSNAKIMKEGLEATGLKVYGGVNAPYLWVKTPNGLSSWRFFEQMLYEANVVGTPGVGFGPSGEGYIRLTAFGDHNDCMEAMRRIKNWL | not soluble
MAMSQQDLPTLFYSGKSNSAVPIISESELQTITAEPWLEISKKGLQLEGLNFDRQGQLFLLDVFEGNIFKINPETKEIKRPFVSHKANPAAIKIHKDGRLFVCYLGDFKSTGGIFAATENGDNLQDIIEDLSTAYCIDDMVFDSKGGFYFTDFRGYSTNPLGGVYYVSPDFRTVTPIIQNISVANGIALSTDEKVLWVTETTANRLHRIALEDDGVTIQPFGATIPYYFTGHEGPDSCCIDSDDNLYVAMYGQGRVLVFNKRGYPIGQILIPGRDEGHMLRSTHPQFIPGTNQLIICSNDIEMGGGSMLYTVNGFAKGHQSFQFQLEHHHHHH | soluble
MPKVGMPEIRKPQLVKATMSVIDRVGLHAASISLISKEAGVSTGIINHYFGGKHGLLEETMREILRQLSSTITGKLRALPADAHHQRINAIIDGNFVGYQAENKVAKTWLAFWSYSMHDEQLKRLQRVNERRLLSHLRRELKALLSAEQAELVAHGIASLIDGIWLRGTLNPQGIEADKARIIINDYLDKQLTFYSHKI | not soluble
